Molecular target: Mouse FGFR4/β-klotho complex co-expressed in rat L6 myoblast cells (mouse) (UniProt Q03142)
Assay: cell-based or functional assay

Mouse FGFR4/β-klotho complex co-expressed in rat L6 myoblast cells (mouse), sequence (Q03142 17-799, chain 1 of 2): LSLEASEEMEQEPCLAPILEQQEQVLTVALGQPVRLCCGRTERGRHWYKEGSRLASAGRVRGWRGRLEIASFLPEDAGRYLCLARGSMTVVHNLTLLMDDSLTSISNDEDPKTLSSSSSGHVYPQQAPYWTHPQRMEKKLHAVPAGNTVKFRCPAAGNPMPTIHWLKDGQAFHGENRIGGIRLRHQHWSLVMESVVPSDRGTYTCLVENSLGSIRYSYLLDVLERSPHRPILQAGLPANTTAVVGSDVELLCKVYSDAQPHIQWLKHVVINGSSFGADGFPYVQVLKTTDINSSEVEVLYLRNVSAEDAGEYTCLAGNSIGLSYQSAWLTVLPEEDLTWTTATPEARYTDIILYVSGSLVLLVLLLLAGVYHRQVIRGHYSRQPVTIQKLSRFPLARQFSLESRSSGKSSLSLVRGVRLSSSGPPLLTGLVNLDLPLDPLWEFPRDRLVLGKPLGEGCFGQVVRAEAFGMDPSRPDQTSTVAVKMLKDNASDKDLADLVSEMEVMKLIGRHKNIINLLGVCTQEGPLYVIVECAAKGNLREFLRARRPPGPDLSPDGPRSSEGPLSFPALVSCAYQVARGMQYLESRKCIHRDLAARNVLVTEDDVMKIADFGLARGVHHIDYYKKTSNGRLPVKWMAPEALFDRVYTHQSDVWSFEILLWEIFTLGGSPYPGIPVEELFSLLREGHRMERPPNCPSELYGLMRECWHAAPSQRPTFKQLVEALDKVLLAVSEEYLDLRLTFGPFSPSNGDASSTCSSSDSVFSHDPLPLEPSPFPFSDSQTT
Mouse FGFR4/β-klotho complex co-expressed in rat L6 myoblast cells (mouse), sequence (Q99N32 whole entry, chain 2 of 2, further chain): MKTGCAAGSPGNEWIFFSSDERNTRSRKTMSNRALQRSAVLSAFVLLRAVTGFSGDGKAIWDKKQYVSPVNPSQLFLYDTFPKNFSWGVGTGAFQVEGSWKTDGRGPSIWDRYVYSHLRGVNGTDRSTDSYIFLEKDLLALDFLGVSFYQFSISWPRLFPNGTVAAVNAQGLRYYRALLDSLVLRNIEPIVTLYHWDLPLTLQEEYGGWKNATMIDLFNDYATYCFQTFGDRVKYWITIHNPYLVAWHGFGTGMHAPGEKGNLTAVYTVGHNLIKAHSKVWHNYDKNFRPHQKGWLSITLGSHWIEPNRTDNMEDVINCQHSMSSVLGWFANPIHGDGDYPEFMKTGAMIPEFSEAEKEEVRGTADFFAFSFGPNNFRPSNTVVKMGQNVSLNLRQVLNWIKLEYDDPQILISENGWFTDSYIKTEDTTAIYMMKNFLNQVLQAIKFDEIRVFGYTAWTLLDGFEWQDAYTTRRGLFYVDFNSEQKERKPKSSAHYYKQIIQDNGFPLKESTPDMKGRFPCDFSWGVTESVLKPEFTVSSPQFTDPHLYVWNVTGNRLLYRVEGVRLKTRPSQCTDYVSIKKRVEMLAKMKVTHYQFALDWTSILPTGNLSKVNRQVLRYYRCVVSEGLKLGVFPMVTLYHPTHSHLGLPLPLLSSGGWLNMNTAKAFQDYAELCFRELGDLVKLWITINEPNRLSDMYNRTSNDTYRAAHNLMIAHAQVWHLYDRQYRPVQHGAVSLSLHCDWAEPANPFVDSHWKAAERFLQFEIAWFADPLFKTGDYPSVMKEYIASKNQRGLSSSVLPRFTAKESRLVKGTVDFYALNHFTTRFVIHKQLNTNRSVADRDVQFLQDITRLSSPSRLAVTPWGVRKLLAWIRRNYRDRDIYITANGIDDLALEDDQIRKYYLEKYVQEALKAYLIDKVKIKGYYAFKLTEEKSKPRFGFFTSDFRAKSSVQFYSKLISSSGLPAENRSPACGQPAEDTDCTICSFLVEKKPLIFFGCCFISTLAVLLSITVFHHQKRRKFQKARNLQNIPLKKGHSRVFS
FGF19 (fibroblast growth factor 19, reference or wild type sequence), sequence (O95750 23-216 limits assumed): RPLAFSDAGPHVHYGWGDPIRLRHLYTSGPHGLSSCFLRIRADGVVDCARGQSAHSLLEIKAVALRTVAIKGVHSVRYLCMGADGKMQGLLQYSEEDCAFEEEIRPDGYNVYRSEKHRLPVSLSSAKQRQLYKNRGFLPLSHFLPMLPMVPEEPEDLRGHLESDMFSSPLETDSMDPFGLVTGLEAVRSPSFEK

FGF19 (fibroblast growth factor 19, reference or wild type sequence) (from UniProt O95750 23-216) (ligand)
EC50 (pM), ELK luciferase reporter assay in L6 cells: 52.5 pM | Emax (fold potentiation), ELK luciferase reporter assay in L6 cells (fold potentiation): 1.82

Reference: patent US20150291677A1
